Where a chain is given by its changes, count along the chain named.
Tests used:
[1] = molecular target: T1, DME (MBP-Δ537DME, wild-type glycosylase domain) (UniProt Q8LK56); assay: cleavage_in_vitro; conditions: abasic at top position 18; 5mC at bottom position 19; rate reduced approximately 10-fold
T1 sequence: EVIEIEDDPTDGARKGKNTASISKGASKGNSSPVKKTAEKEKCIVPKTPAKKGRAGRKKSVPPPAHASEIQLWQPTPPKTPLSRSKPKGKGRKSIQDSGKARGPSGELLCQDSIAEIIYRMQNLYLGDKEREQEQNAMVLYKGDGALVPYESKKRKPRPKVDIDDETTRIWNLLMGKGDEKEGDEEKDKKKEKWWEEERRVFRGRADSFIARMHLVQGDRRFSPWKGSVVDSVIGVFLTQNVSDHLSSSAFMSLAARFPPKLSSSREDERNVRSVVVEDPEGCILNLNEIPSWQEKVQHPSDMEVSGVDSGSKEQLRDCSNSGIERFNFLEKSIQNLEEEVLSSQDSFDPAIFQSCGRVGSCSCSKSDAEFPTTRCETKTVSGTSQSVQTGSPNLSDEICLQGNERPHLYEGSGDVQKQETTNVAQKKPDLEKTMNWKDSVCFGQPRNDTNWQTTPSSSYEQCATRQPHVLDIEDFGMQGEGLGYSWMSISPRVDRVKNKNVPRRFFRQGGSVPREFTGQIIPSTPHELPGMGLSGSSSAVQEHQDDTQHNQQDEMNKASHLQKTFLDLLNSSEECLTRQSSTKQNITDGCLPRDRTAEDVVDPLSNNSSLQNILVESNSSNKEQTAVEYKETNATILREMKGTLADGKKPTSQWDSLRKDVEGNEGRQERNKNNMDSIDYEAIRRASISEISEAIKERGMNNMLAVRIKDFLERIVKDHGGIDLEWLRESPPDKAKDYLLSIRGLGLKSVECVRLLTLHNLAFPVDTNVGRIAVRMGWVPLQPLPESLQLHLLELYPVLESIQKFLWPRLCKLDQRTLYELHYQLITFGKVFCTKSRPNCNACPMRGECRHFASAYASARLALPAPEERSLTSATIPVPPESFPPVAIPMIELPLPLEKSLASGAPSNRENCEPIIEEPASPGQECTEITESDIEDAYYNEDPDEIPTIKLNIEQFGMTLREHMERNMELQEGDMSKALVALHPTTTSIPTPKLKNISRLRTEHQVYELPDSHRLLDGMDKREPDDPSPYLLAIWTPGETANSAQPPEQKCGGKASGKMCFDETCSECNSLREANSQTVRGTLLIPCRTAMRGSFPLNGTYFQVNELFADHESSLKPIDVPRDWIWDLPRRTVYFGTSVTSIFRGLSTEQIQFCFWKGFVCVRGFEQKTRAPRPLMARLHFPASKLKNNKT

[2] = molecular target: T2, DME (MBP-Δ537DME, wild-type glycosylase domain) (UniProt Q8LK56 SEQ:538-1729); assay: NaBH4-trapped covalent complex (~200 kd); 40 mM HEPES-KOH pH 8.0, 0.1 M KCl, 37 C; conditions: tags: N-terminal MBP (pMAL-c2x), expressed in E. coli Rosetta; label: 5'-32P top strand
T2 chain: T1 sequence
Source text: DME breaks the phosophodiester linkage on the 3′-side of a 5-methylcytosine residue (hemimethylated substrate) and generates end-labeled DNAs that migrate on denaturing polyacrylamide gels at the predicted position for β-elimination products (FIG. 3C). The subsequent cleavage of the phosphodiester linkage on the 5′-side yields δ-elimination products through the same mechanism found in related DNA glycosylases (Bhagwat, M. and Gerlt, J. A., Biochemistry, 35, 659-665 (1996)). Treatment of products with strong base (NaOH) prior to gel electrophoresis confirmed the δ-elimination process at the predicted position (FIG. 3C). […] No lyase activity (FIG. 3E) or covalent trapping (FIG. 3D) was detected when DME was incubated with non-methylated oligonucleotides, or when hemimethylated substrate was incubated with no enzyme or mutant enzymes (D1304N or K1286Q). Plants have 5-methylcytosine in the three sequence contexts; CpG, CpNpG, and CpNpN (Bender, J., Ann Rev Plant Biology, 55, 41-68 (2004)). DME has activity on 5-methylcytosine in each of these sequence contexts (FIG. 3E). We detected no DME activity when single-stranded oligonucleotides with 5-methylcytosine were used in the reaction (data not shown). […]

DME D1304N (MBP-Δ537DME) = molecular target: T3, DME D1304N (MBP-Δ537DME) (UniProt Q8LK56 SEQ:538-1729, D1304N); assay: no trapping or lyase activity detected (catalytic mutant); conditions: tags: N-terminal MBP (pMAL-c2x); label: 5'-32P top strand
T3 sequence: T1 sequence with D767N
Experimental: (§1) 5′-labeled oligonucleotide substrates (13.3 nM) were incubated with DME protein (250 nM) in a 15 μl reaction with 40 mM HEPES-KOH (pH 8.0), 0.1 M KCl, 0.1 mM EDTA, 0.5 mM dithiothreitol, and 200 μg/mL BSA at 37° for 1 hr. The reaction was terminated with 15 μl of 95% formamide, 20 mM EDTA, 0.05% bromophenol blue, 0.05% xylene cyanol FF and boiled for 5 min. To induce […], NaOH was added at a final concentration of 0.1 M and the reaction was boiled for 7 min. Products were fractionated on a 15% polyacrylamide gel containing 7.5 M urea and 1×TBE. Electrophoresis was done at 1000V for 4 hrs with a Hoefer SQ3 gel apparatus. The gel was exposed to Kodak BioMax MR film at −80°. Methods for purification of recombinant DME, oligonucleotide substrates, NaBH₄ trapping, and toxicity in E. coli are in the Supplemental Experimental Procedures.
(§2) 5′-labeled oligonucleotide substrates (13.3 nM) were incubated with DME protein (250 nM) in a 15 μl reaction with 40 mM HEPES-KOH (pH 8.0), 0.1 M KCl, 0.1 mM EDTA, 0.5 mM dithiothreitol, and 200 μg/mL BSA at 37°. After 1 hr of incubation, 1 M NaBH₄ was added to a final concentration of 100 mM and the reaction tubes were placed at 37° for an additional 10 min. An equal volume of 2×SDS-PAGE loading buffer (90 mM Tris-HCl, pH 6.8, 20% glycerol, 2% SDS, 0.02% bromophenol blue, 100 mM dithiothreitol) was added to terminate the trapping reaction. […]

DME K1286Q (MBP-Δ537DME) = molecular target: T4, DME K1286Q (MBP-Δ537DME) (UniProt Q8LK56 SEQ:538-1729, K1286Q); assay: as above; conditions: tags: N-terminal MBP; label: 5'-32P top strand
T4 sequence: T1 sequence with K749Q
Experimental: as §1, §2

[3] = molecular target: T2, DME (MBP-Δ537DME, wild-type glycosylase …); assay: NaBH4-trapped covalent complex; conditions: tags: N-terminal MBP (pMAL-c2x), expressed in E. coli Rosetta; label: 5'-32P top strand; T/G mismatch
Experimental: 5′-labeled oligonucleotide substrates (13.3 nM) were incubated with DME protein (250 nM) in a 15 μl reaction with 40 mM HEPES-KOH (pH 8.0), 0.1 M KCl, 0.1 mM EDTA, 0.5 mM dithiothreitol, and 200 μg/mL BSA at 37°. After 1 hr of incubation, 1 M NaBH₄ was added to a final concentration of 100 mM and the reaction tubes were placed at 37° for an additional 10 min. An equal volume of 2×SDS-PAGE loading buffer (90 mM Tris-HCl, pH 6.8, 20% glycerol, 2% SDS, 0.02% bromophenol blue, 100 mM dithiothreitol) was added to terminate the trapping reaction. Products were boiled for 10 min before loading onto a 10% SDS-PAGE gel. The wet gel was exposed to Kodak Biomax MS film for 12-18 h at −80°.

CTATACCTCCTCAACTCABAICGGTCACCGTCTCCGGCG / CGCCGGAGACGGTGACNGGAGTTGAGGAGGTATAG [abasic 18 opposite meC (MEA-1.6F18AP / MEA-1.6R17meC)]
relative cleavage rate (fold rate vs hemimethylated) [1]: 0.1

B1: hemimethylated meCpG (MEA-1.6F18meC / MEA-1.6R) (dsDNA)
DNA 1: CTATACCTCCTCAACTCCGGTCACCGTCTCCGGCG
DNA 2: CGCCGGAGACGGTGACCGGAGTTGAGGAGGTATAG
modifications: 5mC at position 18 of top strand [top 18 (5mC)]
binding result [2]: binds
binding result (DME D1304N (MBP-Δ537DME)): no binding
binding result (DME K1286Q (MBP-Δ537DME)): no binding

B2: T/G mismatch (MEA-1.6F18T / MEA-1.6R) (dsDNA)
DNA 1: B1 DNA 1 with C18T
DNA 2: B1 DNA 2
binding result [3]: binds
